# Test results published in article PMC5593958, “Dissecting the link between the enzymatic activity and the SaPI inducing capacity of the phage 80α dUTPase” (Scientific Reports, 2017).
# Key:
# Dut80α = target: T1, Dut80α (Dubowvirus dv80alpha, UniProt A4ZF98); experiment: thermal shift (Sypro Orange); format: binding; conditions: 1 mM dUPNPP, 5 mM MgCl2, 10 μM protein, 75 mM HEPES pH 7.5, 250 mM NaCl; absolute Tm, not a shift; decimal comma as printed
# T1 construct: pET28a, His-tagged, E. coli BL21 (DE3), HisTrap and size exclusion; homotrimer; last residues cited about 170
# Description: thermal shift (Sypro Orange) on Dut80α
# [1] = test system: O=c1ccn([C@H]2C[C@H](O)[C@@H](COP(=O)(O)OP(=O)(O)OP(=O)(O)O)O2)c(=O)[nH]1; experiment: malachite green phosphate assay; format: biochemical, Dubowvirus dv80alpha; conditions: pH 7.5
# Description: malachite green phosphate assay on Dut80α
# [2] = target: phage 80α dUTPase D95E mutant (Dut80α D95E) (Staphylococcus aureus phage 80α); experiment: BLI
# [3] = target: phage 80α dUTPase D95E mutant (Dut80α D95E) (Staphylococcus aureus phage 80α); experiment: crystal structure
compound,measurement,setting,value
"O=c1ccn([C@H]2C[C@H](O)[C@@H](COP(=O)(O)NP(=O)(O)OP(=O)(O)O)O2)c(=O)[nH]1 [dUPNPP, 2′-Deoxyuridine-5′-[(α,β)-imido]triphosphate]",Thermal Unfolding (°C) / +dUPNPP,Dut80α,"58 ± 0,09"
(Dubowvirus dv80alpha),Km,[1],7.5 µM
Stl repressor from SaPIbov1 (natural protein),Kd,[2],> 1 mM
phage 80α dUTPase D95E mutant (Dut80α D95E) (enzyme),stoichiometry N,[3],3
